Reference: patent publication US20230365675A1 (published 2023)

B1: sdCD33_3 (VHH)
VHH: DVQLVESGGGLVQPGGSLRLSCSVSGNIDRFYAMGWYRQAPGKQRELVAQLTNNEITTYGDSVEGQFSISGDFDANTVYLQMDSLKPEDTAVYYCHAHVTTTRWSQDYYWGQGTRVTVSS
B2: sdCD33_10 (VHH)
VHH: QVQLVETGGGLVRAGGSLRLSCAASGRTADIYNIGWFRQAPGKEREFVAAITWIGRTPYYADAVKGRFAFSTDSAKNTVSLQMDNLKPEDTGVYYCNAAHYLEGNTDYYWGQGTQVTVSS
B3: sdCD33_4 (VHH)
VHH: QVKLEESGGGSVQAGESLRLSCTASGITFRDYDIDWYRQAPGKEREWLATITPSGTTHYPDSVKGRATISRDSAKNTVYLQMNSLKPEDTARYECNTLAYWGSGTQVTVSS

Assays:
[1] = molecular target: CD33-GFP fusion protein, wild type (WT), on 293FT cells (UniProt P20138); test: FACS, WT CD33-GFP on 293FT cells; further: unit not given here
[2] = molecular target: Mutant CD33-GFP JS23 (L23N) on 293FT cells (UniProt P20138); test: FACS, mutant CD33-GFP on 293FT cells
[3] = molecular target: Mutant CD33-GFP JS24 (Q24E) on 293FT cells (UniProt P20138); test: FACS, mutant CD33-GFP on 293FT cells
[4] = molecular target: Mutant CD33-GFP JS25 (V25M) on 293FT cells (UniProt P20138); test: FACS, mutant CD33-GFP on 293FT cells
[5] = molecular target: Mutant CD33-GFP JS28 (S28L) on 293FT cells (UniProt P20138); test: FACS, mutant CD33-GFP on 293FT cells
[6] = molecular target: Mutant CD33-GFP M10 (Y127A) on 293FT cells (UniProt P20138); test: FACS, mutant CD33-GFP on 293FT cells
[7] = molecular target: Mutant CD33-GFP M11 (L78T) on 293FT cells (UniProt P20138); test: FACS, mutant CD33-GFP on 293FT cells
[8] = molecular target: Mutant CD33-GFP M12 (G88S) on 293FT cells (UniProt P20138); test: FACS, mutant CD33-GFP on 293FT cells
[9] = molecular target: Mutant CD33-GFP M13 (R91E) on 293FT cells (UniProt P20138); test: FACS, mutant CD33-GFP on 293FT cells
[10] = molecular target: Mutant CD33-GFP M14 (E170R) on 293FT cells (UniProt P20138); test: FACS, mutant CD33-GFP on 293FT cells
[11] = molecular target: Mutant CD33-GFP M15 (Q171A) on 293FT cells (UniProt P20138); test: FACS, mutant CD33-GFP on 293FT cells
[12] = molecular target: Mutant CD33-GFP M16 (4889AII) on 293FT cells (UniProt P20138); test: FACS, mutant CD33-GFP on 293FT cells
[13] = molecular target: Mutant CD33-GFP M17 (F21Y) on 293FT cells (UniProt P20138); test: FACS, mutant CD33-GFP on 293FT cells
[14] = molecular target: Mutant CD33-GFP M18 (353AAL) on 293FT cells (UniProt P20138); test: FACS, mutant CD33-GFP on 293FT cells
[15] = molecular target: Mutant CD33-GFP M19 (348ATAI) on 293FT cells (UniProt P20138); test: FACS, mutant CD33-GFP on 293FT cells
[16] = molecular target: Mutant CD33-GFP M4 (R122D) on 293FT cells (UniProt P20138); test: FACS, mutant CD33-GFP on 293FT cells
[17] = molecular target: Mutant CD33-GFP M5 (AEAD), quadruple mutant, on 293FT cells (UniProt P20138); test: FACS, mutant CD33-GFP on 293FT cells
[18] = molecular target: Mutant CD33-GFP M9 (Y49, 50A) on 293FT cells (UniProt P20138); test: FACS, mutant CD33-GFP on 293FT cells
[19] = molecular target: Mutant CD33-GFP N20D on 293FT cells (UniProt P20138); test: FACS, mutant CD33-GFP on 293FT cells
[20] = molecular target: T1, Mutant CD33-GFP M1 (W22A) on 293FT cells (UniProt P20138 18-364); test: FACS, mutant CD33-GFP on 293FT cells
T1 construct: whole, on cells; not shown: GFP fused to CD33

[21] = molecular target: T2, Mutant CD33-GFP M2 (H45E) on 293FT cells (UniProt P20138 18-364); test: FACS, mutant CD33-GFP on 293FT cells
T2 construct: whole, on cells; not shown: GFP fused to CD33

[22] = molecular target: T3, Mutant CD33-GFP M3 (N99A) on 293FT cells (UniProt P20138 18-364); test: FACS, mutant CD33-GFP on 293FT cells
T3 construct: whole, on cells; not shown: GFP fused to CD33

[23] = molecular target: T4, Mutant CD33-GFP M6 (F43N) on 293FT cells (UniProt P20138 18-364); test: FACS, mutant CD33-GFP on 293FT cells
T4 construct: whole, on cells; not shown: GFP fused to CD33

[24] = molecular target: T5, Mutant CD33-GFP M7 (R98D) on 293FT cells (UniProt P20138 18-364); test: FACS, mutant CD33-GFP on 293FT cells
T5 construct: whole, on cells; not shown: GFP fused to CD33

[25] = molecular target: T6, Mutant CD33-GFP M8 (K52A) on 293FT cells (UniProt P20138 18-364); test: FACS, mutant CD33-GFP on 293FT cells
T6 construct: whole, on cells; not shown: GFP fused to CD33

[26] = molecular target: Biotinylated CD33 protein (UniProt P20138); test: Octet competition on biotinylated CD33; competitor 348
[27] = molecular target: Biotinylated CD33 protein (UniProt P20138); test: Octet competition on biotinylated CD33; competitor 389
[28] = molecular target: Biotinylated CD33 protein (UniProt P20138); test: Octet competition on biotinylated CD33; competitor 413
[29] = molecular target: Biotinylated CD33 protein (UniProt P20138); test: Octet competition on biotinylated CD33; competitor 416
[30] = molecular target: Biotinylated CD33 protein (UniProt P20138); test: Octet competition on biotinylated CD33; competitor 420
[31] = molecular target: Biotinylated CD33 protein (UniProt P20138); test: Octet competition on biotinylated CD33; competitor 424
[32] = molecular target: Biotinylated CD33 protein (UniProt P20138); test: Octet competition on biotinylated CD33; competitor 426
[33] = molecular target: Biotinylated CD33 protein (UniProt P20138); test: Octet competition on biotinylated CD33; competitor 429
[34] = molecular target: Biotinylated CD33 protein (UniProt P20138); test: Octet competition on biotinylated CD33; competitor 430
[35] = molecular target: Biotinylated CD33 protein (UniProt P20138); test: Octet competition on biotinylated CD33; competitor h195
[36] = molecular target: Biotinylated CD33 protein (UniProt P20138); test: Octet competition on biotinylated CD33; competitor 353

Mutant CD33-GFP M14 (E170R) on 293FT cells, sequence (P20138 18-364 E170R): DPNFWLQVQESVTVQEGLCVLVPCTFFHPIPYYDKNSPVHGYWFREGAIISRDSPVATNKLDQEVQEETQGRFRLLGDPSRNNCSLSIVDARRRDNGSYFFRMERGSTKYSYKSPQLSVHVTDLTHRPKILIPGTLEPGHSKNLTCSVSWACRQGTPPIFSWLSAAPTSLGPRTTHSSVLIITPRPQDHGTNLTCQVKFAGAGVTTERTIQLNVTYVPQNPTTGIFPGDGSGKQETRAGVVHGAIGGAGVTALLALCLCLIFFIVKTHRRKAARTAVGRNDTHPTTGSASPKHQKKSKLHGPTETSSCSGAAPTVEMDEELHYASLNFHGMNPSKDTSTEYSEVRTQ
T6 sequence (P20138 18-364 K52A): as the sequence (P20138 18-364 E170R) above, with K35A, R153E counted along it
Mutant CD33-GFP M10 (Y127A) on 293FT cells, sequence (P20138 18-364 Y127A): as the sequence (P20138 18-364 E170R) above, with Y110A, R153E counted along it
Biotinylated CD33 protein, sequence (P20138 18-259 limits assumed): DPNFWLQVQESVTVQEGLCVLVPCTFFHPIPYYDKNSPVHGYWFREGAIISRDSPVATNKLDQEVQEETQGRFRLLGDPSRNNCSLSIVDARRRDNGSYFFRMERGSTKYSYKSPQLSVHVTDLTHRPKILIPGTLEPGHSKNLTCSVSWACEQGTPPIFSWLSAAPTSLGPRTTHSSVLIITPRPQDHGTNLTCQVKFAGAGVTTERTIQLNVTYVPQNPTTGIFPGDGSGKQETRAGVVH
Mutant CD33-GFP M15 (Q171A) on 293FT cells, sequence (P20138 18-364 Q171A): as the sequence (P20138 18-364 E170R) above, with R153E, Q154A counted along it
CD33-GFP fusion protein, wild type (WT), on 293FT cells, sequence (P20138 18-364): as the sequence (P20138 18-364 E170R) above, with R153E counted along it
T2 sequence (P20138 18-364 H45E): as the sequence (P20138 18-364 E170R) above, with H28E, R153E counted along it
T4 sequence (P20138 18-364 F43N): as the sequence (P20138 18-364 E170R) above, with F26N, R153E counted along it
Mutant CD33-GFP JS28 (S28L) on 293FT cells, sequence (P20138 18-364 S28L): as the sequence (P20138 18-364 E170R) above, with S11L, R153E counted along it
Mutant CD33-GFP M12 (G88S) on 293FT cells, sequence (P20138 18-364 G88S): as the sequence (P20138 18-364 E170R) above, with G71S, R153E counted along it
Mutant CD33-GFP JS24 (Q24E) on 293FT cells, sequence (P20138 18-364 Q24E): as the sequence (P20138 18-364 E170R) above, with Q7E, R153E counted along it
T3 sequence (P20138 18-364 N99A): as the sequence (P20138 18-364 E170R) above, with N82A, R153E counted along it
T1 sequence (P20138 18-364 W22A): as the sequence (P20138 18-364 E170R) above, with W5A, R153E counted along it
Mutant CD33-GFP JS25 (V25M) on 293FT cells, sequence (P20138 18-364 V25M): as the sequence (P20138 18-364 E170R) above, with V8M, R153E counted along it
Mutant CD33-GFP M11 (L78T) on 293FT cells, sequence (P20138 18-364 L78T): as the sequence (P20138 18-364 E170R) above, with L61T, R153E counted along it
Mutant CD33-GFP M9 (Y49, 50A) on 293FT cells, sequence (P20138 other isoform, or with tags, fused parts or gaps mutant): as the sequence (P20138 18-364 E170R) above, with Y32A, Y33A, R153E counted along it
Mutant CD33-GFP JS23 (L23N) on 293FT cells, sequence (P20138 18-364 L23N): as the sequence (P20138 18-364 E170R) above, with L6N, R153E counted along it
Mutant CD33-GFP M5 (AEAD), quadruple mutant, on 293FT cells, sequence (P20138 other isoform, or with tags, fused parts or gaps mutant): as the sequence (P20138 18-364 E170R) above, with W5A, H28E, N82A, R105D, R153E counted along it
T5 sequence (P20138 18-364 R98D): as the sequence (P20138 18-364 E170R) above, with R81D, R153E counted along it
Mutant CD33-GFP N20D on 293FT cells, sequence (P20138 18-364 N20D): as the sequence (P20138 18-364 E170R) above, with N3D, R153E counted along it
Mutant CD33-GFP M4 (R122D) on 293FT cells, sequence (P20138 18-364 R122D): as the sequence (P20138 18-364 E170R) above, with R105D, R153E counted along it
Mutant CD33-GFP M17 (F21Y) on 293FT cells, sequence (P20138 18-364 F21Y): as the sequence (P20138 18-364 E170R) above, with F4Y, R153E counted along it
Mutant CD33-GFP M13 (R91E) on 293FT cells, sequence (P20138 18-364 R91E): as the sequence (P20138 18-364 E170R) above, with R74E, R153E counted along it

| Molecule | FACS binding data [1] | FACS binding data [2] | FACS binding data [3] | FACS binding data [4] | FACS binding data [5] | FACS binding data [6] | FACS binding data [7] | FACS binding data [8] | FACS binding data [9] | FACS binding data [10] | FACS binding data [11] | FACS binding data [12] | FACS binding data [13] | FACS binding data [14] | FACS binding data [15] | FACS binding data [16] | FACS binding data [17] | FACS binding data [18] | FACS binding data [19] | FACS binding data [20] | other results |
| --- | --- | --- | --- | --- | --- | --- | --- | --- | --- | --- | --- | --- | --- | --- | --- | --- | --- | --- | --- | --- | --- |
| hu195 (antibody) | 97.8 | – | – | – | – | – | – | – | – | – | – | – | – | – | – | – | – | – | – | – | – |
| B1 | 98.3 | 99.1 | 99.4 | 99.7 | 99.6 | 96.3 | 78 | 99 | 98.7 | 98.7 | 98.2 | 98.4 | 98.2 | 99 | 99.6 | 98.5 | 0.31 | 0.64 | 98.7 | 99.4 | FACS binding data [21]: 98.8; FACS binding data [22]: 99.4; FACS binding data [23]: 99; FACS binding data [24]: 98.8; FACS binding data [25]: 97.3; Octet signal [26]: 0.0077; Octet signal [27]: 0.152; Octet signal [28]: 0.0204; Octet signal [29]: -0.0696; Octet signal [30]: -0.0387; Octet signal [31]: -0.108; Octet signal [32]: -0.0122; Octet signal [33]: -0.13; Octet signal [34]: 0.231; Octet signal [35]: 0.295 |
| B2 | 98 | 98.4 | 98.2 | 99.6 | 99.6 | 93.9 | 67.3 | 98.6 | 98.5 | 98.4 | 98.9 | 98.6 | 94.1 | 15.6 | 98.3 | 21.1 | 0.12 | 0.22 | 96.6 | 99.1 | FACS binding data [21]: 65.5; FACS binding data [22]: 99; FACS binding data [23]: 97.6; FACS binding data [24]: 97.1; FACS binding data [25]: 66.1; Octet signal [26]: 0.616; Octet signal [36]: 1.01; Octet signal [27]: 1.16; Octet signal [28]: 0.865; Octet signal [29]: 0.552; Octet signal [30]: 0.95; Octet signal [31]: 0.628; Octet signal [32]: 0.543; Octet signal [34]: 1.44; Octet signal [35]: 1.37 |
| B3 | 98.4 | 99 | 99.3 | 99.5 | 99.6 | 97.2 | 62.8 | 99 | 99.1 | 98.8 | 98.8 | 98.7 | 98.5 | 99.5 | 99.6 | 6.01 | 0.16 | 97.4 | 98.5 | 99.3 | FACS binding data [21]: 84.4; FACS binding data [22]: 97; FACS binding data [23]: 98.3; FACS binding data [24]: 21.5; FACS binding data [25]: 0.15; Octet signal [26]: -0.146; Octet signal [36]: -0.101; Octet signal [28]: -0.0267; Octet signal [29]: -0.28; Octet signal [30]: -0.0649; Octet signal [31]: -0.271; Octet signal [32]: -0.137; Octet signal [33]: -0.26; Octet signal [34]: 0.0905; Octet signal [35]: 0.355 |
